According to patent US20180346564A1 (TEIJIN PHARMA, published 2018):
[ ]: non-standard residue; d: D form. pT = C[C@@H](OP(=O)(O)O)[C@H](N)C(=O)O; pS = N[C@@H](COP(=O)(O)O)C(=O)O

B1: chimeric antibody Ta1505 (antibody, human IgG1, kappa, V domains shown)
VH: EVQLVESGGGLVQPKGSLKLSCAASGFAFNSFALNWVRQAPGKSLEWVVHIRSKTNNYATFYADSVKDRFTVSRDDSQSMVYLQMNNLKTEDTGIYYCVRRGPRDSWFGYWGQGTLVTVSA
VL: DILMTQTPLSLPVSLGDQASISCRSSQNIVHSNGNTYLEWYLQKPGQSPKVLIYTVSNRFSGVPDRFSGSGSGTDFTLKISRVEAEDLGVYYCFQGSHLPLTFGGGTKLELKR
notes: Mouse Ta1505 variable regions with human IgG1(kappa) constant regions. chim; also called the chimeric antibody; Chimera
B2: humanized antibody L48H11 (antibody, human IgG1, kappa, V domains shown)
VH: EVQLVESGGGLVQPGGSLRLSCAASGFTFSSFALNWVRQAPGKGLEWVGHIRSKTNNYATFYAASVKDRFTVSRDDSQNTAYLQMNSLKTEDTATYYCVRRGPRDSWFGYWGQGTLVTVSS
VL: DIVMTQSPLSLPVTLGDPASISCRSSQNIVHSNGNTYLEWYQQKPGQSPQLLIYTVSNRFSGVPDRFSGSGSGTDFTLKISRVEAEDLGVYYCFQGSHLPLTFGGGTKVEIKR
notes: VL48/VH11, human IgG1/kappa
B3: humanized antibody L15H11 (antibody, human IgG1, kappa, V domains shown)
VH: EVQLVESGGGLVQPGGSLRLSCAASGFTFSSFALNWVRQAPGKGLEWVGHIRSKTNNYATFYAASVKDRFTVSRDDSQNTAYLQMNSLKTEDTATYYCVRRGPRDSWFGYWGQGTLVTVSS
VL: DIVMTQSPLSLPVTLGEPASISCRSSQSIVHSNGNTYLEWYQQKPGQSPRLLIYTVSNRFSGVPDRFSGSGSGTDFTLKISRVEAEDLGVYYCFQGSHLPLTFGGGTKVEIKR
notes: VL15/VH11, human IgG1/kappa
B4: humanized antibody L36H11 (antibody, human IgG1, kappa, V domains shown)
VH: EVQLVESGGGLVQPGGSLRLSCAASGFTFSSFALNWVRQAPGKGLEWVGHIRSKTNNYATFYAASVKDRFTVSRDDSQNTAYLQMNSLKTEDTATYYCVRRGPRDSWFGYWGQGTLVTVSS
VL: DIVMTQSPLSLPVTLGDPASISCRSSQSIVHSNGNTYLEWYQQKPGQSPQLLIYTVSNRFSGVPDRFSGSGSGTDFTLKISRVEAEDLGVYYCFQGSHLPLTFGGGTKVEIKR
notes: VL36/VH11, human IgG1/kappa
B5: humanized antibody L47H64 (antibody, human IgG1, kappa, V domains shown)
VH: EVQLVESGGGLVQPGGSLRLSCAASGFTFNSFALNWVRQAPGKGLEWVVHIRSKTNNYATFYAASVKDRFTVSRDDSQNTAYLQMNSLKTEDTATYYCVRRGPRDSWFGYWGQGTLVTVSS
VL: DIVMTQSPLSLPVTLGDPASISCRSSQSIVHSNGNTYLEWYQQKPGQSPQRLIYTVSNRFSGVPDRFSGSGSGTDFTLKISRVEAEDLGVYYCFQGSHLPLTFGGGTKVEIKR
notes: VL47/VH64, human IgG1/kappa

Legend:
[1] = target: T1, Peptide No. 7, pS396/pS400/pS404, H-GC-RENAKAKTDHGAEIVYK(pS)PVV(pS)GDT(pS)PRHL-OH (human, phosphoserine (pS) at peptide positions 20, 24 and 28 (tau Ser396, Ser400, Ser404)); assay: ELISA, coated peptide
T1 peptide: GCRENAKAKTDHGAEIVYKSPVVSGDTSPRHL
Summary of the method: (§1)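 Wells were coated overnight at 4 °C with 50 μL of peptide, or its bovine serum albumin or keyhole limpet hemocyanin conjugate, at 1 μg/mL in cold PBS, then blocked overnight at 4 °C with 3% BSA-PBS. Purified antibody at 150 ng/mL in 3% BSA-PBS was applied for 90 minutes at room temperature, followed by alkaline phosphatase-labelled goat anti-human IgG (H+L) diluted 2000-fold for 60 minutes. Antibody binding was recorded as absorbance. After 40 minutes of pNPP development, plates were read at 405 nm against a 550 nm reference.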

[2] = target: T2, Peptide No. 1, pS46, H-GLKE(pS)PLQT-OH (human, SMILES CC(C)C[C@H](NC(=O)CN)C(=O)N[C@@H](CCCCN)C(=O)N[C@@H](CCC(=O)O)C(=O)N[C@@H](COP(=O)(O)O)C(=O)N1CCC[C@H]1C(=O)N[C@@H](CC(C)C)C(=O)N[C@@H](CCC(N)=O)C(=O)N[C@H](C(=O)O)[C@@H](C)O); assay: ELISA, coated peptide
T2 peptide: H-GLKE[pS]PLQT-OH
Summary of the method: as §1

[3] = target: T3, Peptide No. 8, pS412, H-NV(pS)STGSC-OH (human, SMILES CC(C)[C@H](NC(=O)[C@@H](N)CC(N)=O)C(=O)N[C@@H](COP(=O)(O)O)C(=O)N[C@@H](CO)C(=O)N[C@H](C(=O)NCC(=O)N[C@@H](CO)C(=O)N[C@@H](CS)C(=O)O)[C@@H](C)O); assay: ELISA, coated peptide
T3 peptide: H-NV[pS]STGSC-OH
Summary of the method: as §1

[4] = target: T4, Peptide No. 4, pT212/pS214, H-GCGSPGTPGSRSR(pT)P(pS)LPTPPTREPK-OH (human, phosphothreonine (pT) at peptide position 14 (tau Thr212); phosphoserine (pS) at peptide position 16 (tau Ser214)); assay: ELISA, coated peptide
T4 peptide: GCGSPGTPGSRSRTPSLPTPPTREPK
Summary of the method: as §1

[5] = target: T5, Peptide No. 5, pT217, H-GC-GSRSRTPSLP(pT)PPTREPKKVAVV-OH (human, phosphothreonine (pT) at peptide position 13 (tau Thr217)); assay: ELISA, coated peptide
T5 peptide: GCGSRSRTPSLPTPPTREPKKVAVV
Summary of the method: as §1

[6] = target: T6, Peptide No. 6, pT231, H-KVAVVR(pT)PPKSPS-OH (human); assay: ELISA, coated peptide
T6 peptide: H-KVAVVR[pT]PPKSPS-OH
Summary of the method: as §1

[7] = target: T7, Peptide No. 2, pS199, H-SGYS(pS)PGSPGC-OH (human, SMILES N[C@@H](CO)C(=O)NCC(=O)N[C@@H](Cc1ccc(O)cc1)C(=O)N[C@@H](CO)C(=O)N[C@@H](COP(=O)(O)O)C(=O)N1CCC[C@H]1C(=O)NCC(=O)N[C@@H](CO)C(=O)N1CCC[C@H]1C(=O)NCC(=O)N[C@@H](CS)C(=O)O); assay: ELISA, coated peptide
T7 peptide: H-SGYS[pS]PGSPGC-OH
Summary of the method: as §1

[8] = target: T8, Peptide No. 3, pS202, H-SSPG(pS)PGTPC-OH (human, SMILES C[C@@H](O)[C@H](NC(=O)CNC(=O)[C@@H]1CCCN1C(=O)[C@H](COP(=O)(O)O)NC(=O)CNC(=O)[C@@H]1CCCN1C(=O)[C@H](CO)NC(=O)[C@@H](N)CO)C(=O)N1CCC[C@H]1C(=O)N[C@@H](CS)C(=O)O); assay: ELISA, coated peptide
T8 peptide: H-SSPG[pS]PGTPC-OH
Summary of the method: as §1

[9] = target: T9, His-tagged non-phosphorylated tau protein 4R0N (human, UniProt P10636 2-758); assay: SPR Biacore T200, antigen immobilized
T9 construct: Produced by Escherichia coli; negative control in SPR; also called ATGen Cat. No. ATGP0795
T9 sequence (P10636 other isoform, or with tags, fused parts or gaps limits assumed): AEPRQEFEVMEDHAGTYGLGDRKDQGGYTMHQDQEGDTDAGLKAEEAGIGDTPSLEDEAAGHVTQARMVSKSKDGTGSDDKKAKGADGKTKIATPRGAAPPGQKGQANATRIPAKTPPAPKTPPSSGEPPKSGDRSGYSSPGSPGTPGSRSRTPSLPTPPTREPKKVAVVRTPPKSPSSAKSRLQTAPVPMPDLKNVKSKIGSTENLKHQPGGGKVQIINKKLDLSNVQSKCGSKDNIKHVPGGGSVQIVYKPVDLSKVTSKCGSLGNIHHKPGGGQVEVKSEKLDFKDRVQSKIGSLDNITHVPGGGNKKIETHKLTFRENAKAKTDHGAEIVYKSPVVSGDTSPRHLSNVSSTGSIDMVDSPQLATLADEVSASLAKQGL
Procedure: The binding affinities of the hyperphosphorylated tau protein 4R2N (hpTau), non-phosphorylated tau protein 4R0N, monophosphorylated tau peptide 1×P, triphosphorylated tau peptide 3×P, and non-phosphorylated tau peptide Non P with each antibody were measured with an SPR system Biacore T200 (GE Healthcare Japan), in accordance with the instruction manual for evaluation attached to the system.
The His-tagged hpTau or Tau proteins were each immobilized on a sensor chip using an HBS-N buffer (code No. BR-1003-69) as the immobilization reaction solution and allowing a nickel chloride solution to react with the NTA sensor chip for bonding Ni to NTA. Subsequently, the sensor chip was activated with a mixed solution of N-ethyl-N′-(3-dimethylaminopropyl)-carbodiimide hydrochloride (1-ethyl-3-(3-dimethylaminopropyl)carbodiimide hydrochloride: EDC) and N-hydroxysuccinimide (NHS). A solution of each of the His-tagged proteins, adjusted to a concentration of 100 to 500 ng/mL with a 4-(2-hydroxyethyl)-1-piperazineethanesulfonic acid (HEPES) buffer (0.01 M HEPES, 150 mM KCl, 2 mM DTT, 1 mM EDTA, pH 7.2), was applied to the sensor chip, whereby the protein was immobilized on the sensor chip through covalent bonds with the Ni-NTA. The remaining active NHS was blocked with ethanolamine, and Ni ions were removed with an EDTA solution (Ni-affinity amine coupling: see International Publication No. WO2005/022156). The antigen peptides (1×P, 3×P, and Non P) were each immobilized on a sensor chip by activating the NTA sensor chip with a mixed solution of N-ethyl-N′-(3-dimethylaminopropyl)-carbodiimide (EDC) hydrochloride and N-hydroxysuccinimide (NHS), and then applying a solution of the antigen peptide diluted with a 10 mM sodium acetate buffer (pH: 4 to 4.5) to 1 to 10 μM to the sensor chip, whereby the peptide was covalently bound to the sensor chip. The remaining active NHS was blocked with ethanolamine. Thus, sensor chips immobilized respectively with the proteins and peptides mentioned above were produced.
A CAPS buffer (pH 10.5) was applied to these sensor chips at 37° C. to stabilize the protein- or peptide-immobilized surfaces of the sensor chips.

| Binder | binding result [1] | binding result [2] | binding result [3] | binding result [4] | binding result [5] | binding result [6] | binding result [7] | binding result [8] | binding result [9] |
| --- | --- | --- | --- | --- | --- | --- | --- | --- | --- |
| B1 | no binding (tested: OD value <0.5; antibody 150 ng/mL) | no binding (tested: OD value <0.5; antibody 150 ng/mL) | no binding (tested: OD value <0.5; antibody 150 ng/mL) | no binding (tested: OD value <0.5; antibody 150 ng/mL) | no binding (tested: OD value <0.5; antibody 150 ng/mL) | no binding (tested: OD value <0.5; antibody 150 ng/mL) | no binding (tested: OD value <0.5; antibody 150 ng/mL) | no binding (tested: OD value <0.5; antibody 150 ng/mL) | no binding (tested: 0.2 to 1 nM) |
| B2 | no binding (tested: OD value <0.5; antibody 150 ng/mL) | no binding (tested: OD value <0.5; antibody 150 ng/mL) | no binding (tested: OD value <0.5; antibody 150 ng/mL) | no binding (tested: OD value <0.5; antibody 150 ng/mL) | no binding (tested: OD value <0.5; antibody 150 ng/mL) | no binding (tested: OD value <0.5; antibody 150 ng/mL) | no binding (tested: OD value <0.5; antibody 150 ng/mL) | no binding (tested: OD value <0.5; antibody 150 ng/mL) | no binding (tested: 0.2 to 1 nM) |
| B3 | no binding (tested: OD value <0.5; antibody 150 ng/mL) | no binding (tested: OD value <0.5; antibody 150 ng/mL) | no binding (tested: OD value <0.5; antibody 150 ng/mL) | no binding (tested: OD value <0.5; antibody 150 ng/mL) | no binding (tested: OD value <0.5; antibody 150 ng/mL) | no binding (tested: OD value <0.5; antibody 150 ng/mL) | no binding (tested: OD value <0.5; antibody 150 ng/mL) | no binding (tested: OD value <0.5; antibody 150 ng/mL) | no binding (tested: 0.2 to 1 nM) |
| B4 | no binding (tested: OD value <0.5; antibody 150 ng/mL) | no binding (tested: OD value <0.5; antibody 150 ng/mL) | no binding (tested: OD value <0.5; antibody 150 ng/mL) | no binding (tested: OD value <0.5; antibody 150 ng/mL) | no binding (tested: OD value <0.5; antibody 150 ng/mL) | no binding (tested: OD value <0.5; antibody 150 ng/mL) | no binding (tested: OD value <0.5; antibody 150 ng/mL) | no binding (tested: OD value <0.5; antibody 150 ng/mL) | no binding (tested: 0.2 to 1 nM) |
| B5 | no binding (tested: OD value <0.5; antibody 150 ng/mL) | no binding (tested: OD value <0.5; antibody 150 ng/mL) | no binding (tested: OD value <0.5; antibody 150 ng/mL) | no binding (tested: OD value <0.5; antibody 150 ng/mL) | no binding (tested: OD value <0.5; antibody 150 ng/mL) | no binding (tested: OD value <0.5; antibody 150 ng/mL) | no binding (tested: OD value <0.5; antibody 150 ng/mL) | no binding (tested: OD value <0.5; antibody 150 ng/mL) |  |
